Experimental data as given in the DeepSol protein solubility set.

test: soluble on expression in E. coli; label from the status in PepcDB or PDB records

Sequence | soluble on expression in E. coli
MSSIASNTFTKTVESVPVDIKYDSDKYFISGYSYDAEVYLTATTQLALTTETTSDTRHFKLVADLSNFGPGTSHVPIQVKNLPDGMSAQVSPSTLTATIGKKASKTFDVVANITPDKLANGYEVKKVSLDETKVEVTSSEDIINQIDHVQAVLEGDDNLSDDYDGNLVLQAVSSNGTILASSISPAKVHAKISLRKLSKSVPVKLELTGDKASNVSSISYSFDRGHVTIVGSQEAMDKIDSITVPVDISQVTEDTSKTLELKAEGVTVQPSTVKVNLKVTQKLEHHHHHH | soluble
MKEVPMILEICVDDVAGLEAAVRGGADRIELCAALSGGGVTPSAGFMQRAATYGLPVSVMIRPRAGDFVFTHDEADVMKRDIDAARAAGLSGVVLGASRGDGSLDMALLEDLRRHADGMDATLHRAFDVAPDMEEALEAAISLGFPRILTSGGARSALEGVKTLARLSELAKGRIVIMPGAGVRPQSVQALLDSFPITEIHASCSAVPLYDPESRVAKLGFTGAGRKATDEAAVRELKTILSAHHKGGATLLEHHHHHH | soluble
MAHHHHHHMSISIRSTAQRQLARRQPPTTSSSSVSLPRAAFAPASRSASAVEATSESASSSQVPEQQEATPTRILDNARSSSCAAAPPPFSASSDQRSDQINKCIHDTSTLTSKPPPSASSASSRGAAAPSLPPSAPSSTTGAPRSGHDAEPEGLHDAASSTAAPSGAGSSAVANSQRTAASHSLLYSVSRFTEPVKRIILIRNGRSEANEDVRAYVQTPDWRIPLVEEGKREAIAAGRALSELIGDGPVYFYYSPYIRSRQSLRYVLQGFDEARLSGLSHSREWWEDEETAAVASAAAAAESSTLKCATASADEAGSPPLLAPAPSAISTNATSSDAQCCFHRDPSLVLNRGTSNNIIGVREDVRLRDGDIGRYTSADELMHHLVERERYGRFFYRFPFGESGADVCDRVTSFLDAFQRERVEFPMDTSVVIITHGLTMRMLIKRWFYLTVETFHKMKSPPPGSLCTLTRLHHRSCFRLDECCVESMNLPLSLNEFNGYKYRNKQLLGSMSSGAPYM | not soluble
MPFHYPKLYMDHRGNMSTSSSLTSSTTATSSSSTGGVRKQILTLKPKQPNGYVQHLEIKAKESSQSSVISGGVPVPVTLLELKKKDRSEKNVVTNLKYRKPTANHHLDSVHSSSEHHHHHHLSLSSLTRRPGSPSSSGYETDSLVDQENCDVFSSLFNSSLSYQSALDHHHQFHELDMLHSHPIWSPQLPNNNTSLMMGSNSYYLQ | not soluble
MVLETPVCSPIDKESSSDDVQLNKPPKKKRKLDVVYPPRDNTSSSSDVKPKVPGYCGVKAIGCNRSDELLAEVALHSYNSQTGTNLELMTVTQVMLQSVAHINYHMILDAFDPANNSLSSIEICLWDAAVKNNEKLRLVTTFCSLEGSGDKGSQWDPNGVDVLYTGVMPKWLDDGALSGSEKLHYYEVNDSDLQENKWLHLYAQVGAYSKWDLGMVKHFPLEIKKVVVQTMEDDIESNLKLKSSNAIFYITFTTSGGVECACIIRQTRNGRPQHMCLEINNVEMDK | soluble
MAARPKLHYPNGRGRMESVRWVLAAAGVEFDEEFLETKEQLYKLQDGNHLLFQQVPMVEIDGMKLVQTRSILHYIADKHNLFGKNLKERTLIDMYVEGTLDLLELLIMHPFLKPDDQQKEVVNMAQKAIIRYFPVFEKILRGHGQSFLVGNQLSLADVILLQTILALEEKIPNILSAFPFLQEYTVKLSNIPTIKRFLEPGSKKKPPPDEIYVRTVYNIFRP | soluble
MGSDKIHHHHHHMNEIAGIPYVEASFDKNGQGPEEEVALPAGVTDLIIMSHGWNNNKSKAEDLYNGFFASFAAAAQPNDLSARKLVILGVFWPSREYDTSVAVSGTPATGGGGAALGGGNGGSIKRLEEKLDDMKEIFTEAEQKKLLDEAKALLPDLEEKASVRDLFVNKMRSLLDPSAAGKEDASNIFFKDGGNELMKNLKAEEEDLGEDVAGGGAALPLGVSTPARAEGGAAGLVEILSGFKAAAINLLNYTTYYEMKTRSGTVGKNGVAPLIDKLASQVERIHLIGHSFGCRVVTSAALGSKTDKIKSMILLQAAFSQNGFSKIEQGFYRAIVDNHRVKGPVLITHTPNDRAVGLAYPLASRISGDKTMAFGDKDDLFGAMGRNGAQKMEQGEAVEGKLLSVGGPYAFKANTYFNLEASDFIKNHNDIKGKEVGYVVRKVVATAGMG | not soluble
AVSGIRQSLISRKALTLFKTVLPAMSQTEKEALDAGTVWWEAELFKGKPEWEKLHAIQAPKLSAEERAFLDGPVNEVCAMVSDFQVTHELADLPPEVWQYLKDNKFFAMIIK | not soluble
MGSSHHHHHHSSGLVPRGSHMASMTGGQQMGRGSMNIAVVTDSTAYIPKEMREQHQIHMIPLQVVFREETYREEIELDWKSFYEEVKKHNELPTTSQPPIGELVALYEELGKSYDAVISIHLSSGISGTFSSAAAADSMVDNIDVYPFDSEISCLAQGFYALKAAELIKNGASSPEDIIKELEEMKKTVRAYFMVDDLAHLQRGGRLSSAQAFIGSLLKVKPILHFDNKVIVPFEKIRTRKKAISRIYELLDEDASKGLPMRAAVIHANREEEAAKIIEELSAKYPHVEFYNSYFGAVIGTHLGEGALGICWCFK | soluble
MSLSETSEHPVDGDELLVRTVLSNQALKRIFTHRTDSMTECYQVEKTFLQSEQSLLIGHQLHPTPKSRQGIDEDEELLFTPERKGSFQLHYFRAACELVDEKSALADSASELIKHDLLHDPNVQDSFKASYCQADDYVLLPVHPLQARKLLGKKEIADLIQAGKLSYLGPQGRAFYPTSSLRTVYHPEAEYMYKFSIPVKITNSLRVNKRKELARGVEVSELLKNGLYDQLKAEHPAFNIVQDPAYITLSLDSEESGLETVIRENPFRQGGEERTTLLAALCQDSIQGNSHLTNLMVELAKQKKISVTEASKWWFSRYLNVSLRPLYWLYATHGIALEAHQQNSIIKLDAEGLPSLFYYRDNQGYYFMQSKAETLKQFVPTLNEQSDTICSDAVAEERFRYYVFFNHLFGLVNAFGTNRLIDEEQLLHILREELTLLRQQFGDPTNLVNSLLHEEMLPCKANLLTRIHDMDELEGSLATQSVYVPVPNPLVVMAGELHEGHHHHHH | soluble
LAIFLIDLPPSDMERRLGDALTVYVDAMRYPRGTETLRAPMWLEHIRRRGWQAVAAVEVTAAEQAEAADTTALPSAAELSNAPMLGVAYGYPGAPGQWWQQQVVLGLQRSGFPRLAIARLMTSYFELTELHILPRAQGRGLGEALARRLLAGRDEDNVLLSTPETNGEDNRAWRLYRRLGFTDIIRGYHFAGDPRAFAILGRTLPL | not soluble
MGSDKIHHHHHHMEKVKVKNPIVELDGDEMARVMWKMIKEKLILPYLDIQLVYFDLGIKKRDETDDQITIEAAKAIKKYGVGVKCATITPDAERVKEYNLKKAWKSPNATIRAYLDGTVFRKPIMVKNVPPLVKRWKKPIIIGRHAYGDIYNAVEAKVEGPAEVELVVRNKENKTLLVHKFEGNGVVMAMHNLEKSIRSFAQSCINYAISEKVDIWFATKDTISKVYHAYFKDIFQEEVDKRKEELEKAGVNYRYMLIDDAAAQILRSEGGMLWACMNYEGDIMSDMIASGFGSLGLMTSVLVSPDGVYEFEAAHGTVRRHYYRYLKGEKTSTNPTASIFAWTGAIRKRGELDGTPEVCEFADKLEKAVINTIESGVITKDLQPFTEPPIDKYVTLEEFIDEVKKNLEKLL | not soluble
VHFAPTITFLESPTSDHHWCIPFTVKGNPKPALQWFYNGAILNESKYICTKIHVTNHTEYHGCLQLDNPTHMNNGDYTLIAKNEYGKDEKQISAHFMGWPGID | soluble
MSLSGIYEIAILGRATWQLHSLNNEGTVGNVTEPRSVRIIDPNTKKAVTTDGISGEMLKHIHTEIMWTLDDKNNLCDACKVLNPEKFNFAIKSKKATPKDVEDALKQALNTCDICDVQGFLLERPTASRKSTVEFGWALGIPEVYRDIHTHARHALGEKGKREKTEESEEEVGGVSTQMVYHRPTRSGVYAIISVFQPWRIGLNEAKQDKYTYDANDNARERRYQLALKAYPLLFARPEGAMTTTRLPHVEDFSGVIVYSTKPIPVPIISPLKSNYVDEVKTIVENIDDSLKVAEFNGIAEFAMKIGELIKNKPYKMEFEGHHHHHH | soluble
MAHHHHHHMMQSKVLPTPQDVVLQGLLSLDSTVKTKTHALVSRQLDRLESYLRIKCGWSVPLSSSSTSAEAGCGSNVVRVSEYVRAFTPDGVPIVDRNGGSFNCFVCCGFGDHAMDFAPGAAKVLGKLVEHQAQHLREEDIEKTKTWGLLTSKLSPSRRAAVEEELQLLFNGVDSDAVKRKGSRTPSEASALALLRHEDNPYSTNRFANMVRKEVKMDSSPPILSRLCALEDVFLTHLEPLRRRFHAKATELALRENTPDWLRTFVFCFMYEEDDDPAAQARKEQHVRSLQRLASQYETPVTDAKTTGDGAEELPLTPAEQSKRKQAELERRAREVFAKRV | not soluble
MLWMVIGMWDTSKDYRLMVAVKAVDLFRRTLESGGFRGQWKKKPALQAAGEIERILQGLTYCYMEPEDLASSPEVMEIKGKVEEIVEALGGEDWSRRFLEEAPREEREKVEENIARVRFFLNTLGNLDRRLMLGKISDPVIGVDIITGEVMSVGNHPVADKLHVCNVNAGGRSIKVVTNDLDVRENDHVAVALLPPQNFMGVTSEGMFLGVEGVLRDVDGEPGEMPRGIPLEALNETRNLVEEFLKS | soluble
KPPDPPNRVPEKKVVETSAFGHHVQLVNREGKAVGFIEIKESDDEGLDIHISANSLRPGASLGFHIYEKGSCVRPDFESAGGHFNPLNKEHGFNNPMGHHAGDLPNLEVGADGKVDVIMNAPDTSLKKGSKLNILDEDGSAFIIHEQADDYLTNPSGNSGARIVCGALLGNNEKQ | soluble
MGSDKIHHHHHHMDDFDTPVTGNAYGNNTIKEQRTISIANLKEKYSSVISANQFQTVTEETRISGVVVGDDESGNIYKQLIVADETGAIVVGINSTGIYANCPVGQKVVIDCENLNVGGYGMQAQIGTTYKGAIGRMDLAVWLDHVRVINKPQLWYDELIPMELTGAQLKAYDKDLAPVLVMFKDVTIKEADGTATFAPEDLKDGGNGVNRTLVLDDNSTLTFRTSTYANFSTEVMPTGKINVIGILSRYNSTWQIVARTYSDIQRNN | not soluble
MGSDKIHHHHHHMCNSYLEYTAAGVSDLRPYQPGKPLAELERELGIRDAIKLASNENPLGPSPLALAAVREVLPALAQYPEGSAPELRALLARQLDLDPGQFIFGNGSDQVVELAVRALAGPGTEVIVSQYAFAAYAIAAQASGATVRVAPARDYGHDLDAMASLLNANTRLVFIANPNNPTGTYLTADALETFIDSVPSHALVVLDEAYLELMDAADYPDGRRWLRRFGNLMLTRTFSKAYGLAGLRCGYGIGHPDLMAVLERVRQPFNVNTLAQVAAHAALTDRAHLQATLANNRQGIVALRDGLCNLGLTILPPAGNFTAFAVPGGGQRVYEALLLRGVIVRPLTPYGMPDHLRVSVGLPVENQRFLTMLGEVL | not soluble
MAHHHHHHMIRINENSKMSSNLSNENEVTYEKNNNIKNKLEEKYKNFLKLKNMNSHMGASQNMNVNNNYTMNELEEFEKINNNYNNNNNNINNNINNYYDYMNIKVSQSVQHNKRLQDFYNNKNSFQHYIKKLKTCRFDADDIRNLLEKRLAYERDNTLIKNIQEEENKKGIGINGNFGSESNSSSSNYDNNYLLYRKINRLNKTNTNKSKNRSRKRKRINSKIDKKYIIKCRACKFINPNGFKIEDYYTCQNCGYNDFSVIRSTSPNNAD | not soluble
